B1: ALKBH7 (parent)
chain: SVICRSLPEGMGPGESGQPPPAC

Variants of: B1
Assay: protein stability index of a GFP-peptide fusion (GPS, HEK-293T) (PSI 1-6); higher = more stable
Details: c terminus: native
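Note: lentivirally expressed fusions sorted by FACS into six bins by GFP to DsRed ratio, PSI derived from sequencing read proportions per bin multiplied by bin number.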

Variant | protein stability index
SVVCRSLPEGMGPGESGQPPPAC | 1.84
SVTCRSLPEGMGPGESGQPPPAC | 1.92
SVYCRSLPEGMGPGESGQPPPAC | 1.62
SVICRSLPEGMGPRESGQPPPAC | 1.67
SVICRSLPEGMGPFESGQPPPAC | 1.61
SVICRSLPEGMGPMESGQPPPAC | 1.63
SVICRSLPEGMGPHESGQPPPAC | 2.07
SVICRSLPEGMGPKESGQPPPAC | 1.58
SVICRSLPEGMGPNESGQPPPAC | 2.42
SVICRSLPEGMGPEESGQPPPAC | 1.53
SVICRSLPEGMGPSESGQPPPAC | 1.42
SVICRSLPEGMGPVESGQPPPAC | 1.15
SVICRSLPEGMGPLESGQPPPAC | 2
SVICRSLPEGMGPAESGQPPPAC | 2.37
SVICRSLPEGMGPTESGQPPPAC | 1.77
SVICRSLPEGMGPQESGQPPPAC | 2.4
SVICRSLPEGMGPDESGQPPPAC | 2.25
SVICRSLPEGMGPCESGQPPPAC | 1.52
SVICRSLPEGMGPIESGQPPPAC | 1.24
SVICRSLPEGMGPWESGQPPPAC | 1.26
SVIWRSLPEGMGPGESGQPPPAC | 2.62
SVIIRSLPEGMGPGESGQPPPAC | 2.88
SVIFRSLPEGMGPGESGQPPPAC | 1.61
SVIARSLPEGMGPGESGQPPPAC | 3.06
SVIVRSLPEGMGPGESGQPPPAC | 1.63

Variant | protein stability index
SVIHRSLPEGMGPGESGQPPPAC | 2.29
SVIKRSLPEGMGPGESGQPPPAC | 1.37
SVILRSLPEGMGPGESGQPPPAC | 2.03
SVINRSLPEGMGPGESGQPPPAC | 2.24
SVIMRSLPEGMGPGESGQPPPAC | 1.75
SVIRRSLPEGMGPGESGQPPPAC | 1.72
SVITRSLPEGMGPGESGQPPPAC | 1.62
SVIDRSLPEGMGPGESGQPPPAC | 1.58
SVIQRSLPEGMGPGESGQPPPAC | 2.83
SVISRSLPEGMGPGESGQPPPAC | 1.82
SVIPRSLPEGMGPGESGQPPPAC | 2.4
SVIGRSLPEGMGPGESGQPPPAC | 1.79
SVIYRSLPEGMGPGESGQPPPAC | 1.47
SVICRSLPEGMGRGESGQPPPAC | 3.33
SVICRSLPEGMGIGESGQPPPAC | 1.75
SVICRSLPEGMGLGESGQPPPAC | 1.39
SVICRSLPEGMGFGESGQPPPAC | 1.55
SVICRSLPEGMGEGESGQPPPAC | 1.92
SVICRSLPEGMGNGESGQPPPAC | 2.4
SVICRSLPEGMGYGESGQPPPAC | 1.74
SVICRSLPEGMGKGESGQPPPAC | 2.16
SVICRSLPEGMGVGESGQPPPAC | 1.4
SVICRSLPEGMGDGESGQPPPAC | 2.4
SVICRSLPEGMGMGESGQPPPAC | 1.55
SVICRSLPEGMGCGESGQPPPAC | 1.92

Variant | protein stability index
SVICRSLPEGMGGGESGQPPPAC | 1.58
SVICRSLPEGMGTGESGQPPPAC | 1.81
SVICRSLPEGMGHGESGQPPPAC | 2.18
SVICRSLPEGMGQGESGQPPPAC | 2.38
SVICRSLPEGMGWGESGQPPPAC | 1.57
SVICRSLPEGMGAGESGQPPPAC | 1.73
SVICRSLPEGMGSGESGQPPPAC | 2.35
SVICRSLPEGYGPGESGQPPPAC | 2.52
SVICRSLPEGNGPGESGQPPPAC | 2.81
SVICRSLPEGEGPGESGQPPPAC | 3.08
SVICRSLPEGAGPGESGQPPPAC | 2.37
SVICRSLPEGCGPGESGQPPPAC | 1.73
SVICRSLPEGLGPGESGQPPPAC | 1.99
SVICRSLPEGRGPGESGQPPPAC | 2.29
SVICRSLPEGHGPGESGQPPPAC | 1.98
SVICRSLPEGFGPGESGQPPPAC | 1.49
SVICRSLPEGPGPGESGQPPPAC | 1.84
SVICRSLPEGDGPGESGQPPPAC | 4.2
SVICRSLPEGWGPGESGQPPPAC | 1
SVICRSLPEGSGPGESGQPPPAC | 2.23
SVICRSTPEGMGPGESGQPPPAC | 3.06
SVICRSFPEGMGPGESGQPPPAC | 2.35
SVICRSCPEGMGPGESGQPPPAC | 2.05
SVICRSRPEGMGPGESGQPPPAC | 1.85
SVICRSSPEGMGPGESGQPPPAC | 2.14

Variant | protein stability index
SVICRSMPEGMGPGESGQPPPAC | 1.67
SVICRSYPEGMGPGESGQPPPAC | 1.67
SVICRSQPEGMGPGESGQPPPAC | 2.67
SVICRSIPEGMGPGESGQPPPAC | 2.36
SVICRSHPEGMGPGESGQPPPAC | 1.63
SVICRSAPEGMGPGESGQPPPAC | 2.32
SVICRSDPEGMGPGESGQPPPAC | 2.98
SVICRSEPEGMGPGESGQPPPAC | 2.16
SVICRSVPEGMGPGESGQPPPAC | 1.99
SVICRSLPEGMKPGESGQPPPAC | 2.22
SVICRSLPEGMSPGESGQPPPAC | 1.87
SVICRSLPEGMWPGESGQPPPAC | 1.09
SVICRSLPEGMRPGESGQPPPAC | 1.82
SVICRSLPEGMLPGESGQPPPAC | 1.85
SVICRSLPEGMMPGESGQPPPAC | 2.68
SVICRSLPEGMFPGESGQPPPAC | 1.54
SVICRSLPEGMNPGESGQPPPAC | 2.09
SVICRSLPEGMYPGESGQPPPAC | 2.04
SVICRSLPEGMAPGESGQPPPAC | 2.17
SVICRSLPEGMIPGESGQPPPAC | 1.87
SVICRSLPEGMPPGESGQPPPAC | 2.37
SVICRSLPEGMQPGESGQPPPAC | 2

— the supplement of paper PMC10567573
